According to patent US20090042785A1 (Pieris, published 2009):
Residue numbers refer to the chain shown, from its start. In names and notes the source's numbering stands.

B1: S140.4-O10_A145C PEGylated with 12k PEG-maleimide (designed binder)
chain: QDSTSDLIPAPPLSKVPLQQNFQDNQFHGKWYVVGLAGNRILRDDQHPMNMYATIYELKEDKSYNVTSVISSHKKCEYTIATFVPGSQPGEFTLGNIKSYGDKTSYLVRVVSTDYNQYAVVFFKLAEDNAEFFAITIYGRTKELCSELKENFIRFSKSLGLPENHIVFPVPIDQCIDG
modifications: 12k PEG-maleimide on Cys 145
notes: also called O10_A145C PEGylated monomer
B2: S140.4-O10_E143C PEGylated with 12k PEG-maleimide (designed binder)
chain: B1 chain with E143C, C145A
modifications: 12k PEG-maleimide on Cys 143
notes: also called O10_E143C PEGylated monomer
B3: S140.4-O10_S146C PEGylated with 12k PEG-maleimide (designed binder)
chain: B1 chain with C145A, S146C
modifications: 12k PEG-maleimide on Cys 146
notes: also called O10_S146C PEGylated monomer
B4: S140.4-O10_T141C PEGylated with 12k PEG-maleimide (designed binder)
chain: B1 chain with T141C, C145A
modifications: 12k PEG-maleimide on Cys 141
notes: also called O10_T141C PEGylated monomer
B5: S140.4-O10_V84C PEGylated with 12k PEG-maleimide (designed binder)
chain: B1 chain with V84C, C145A
modifications: 12k PEG-maleimide on Cys 84
notes: also called O10_V84C PEGylated monomer
B6: S140.4-O10-CH4 (fusion with the CH4 domain of the human IgE-Fc portion) (designed binder)
chain: QDSTSDLIPAPPLSKVPLQQNFQDNQFHGKWYVVGLAGNRILRDDQHPMNMYATIYELKEDKSYNVTSVISSHKKCEYTIATFVPGSQPGEFTLGNIKSYGDKTSYLVRVVSTDYNQYAVVFFKLAEDNAEFFAITIYGRTKELASELKENFIRFSKSLGLPENHIVFPVPIDQCIDGSTTKTSGPRAAPEVYAFATPEWPGSRDKRTLACLIQNFMPEDISVQWLHNEVQLPDARHSTTQPRKTKGSGFFVFSRLEVTRAEWEQKDEFICRAVHEAASPSQTVQRAVSVNPESSRSGGCSAWSHPQFEK
modifications: The molecule is a homodimer formed through the CH4 domain (the patent calls it the CH4-dimer). One copy of the chain is given.
notes: Fused for dimerization; CH4 domain between the mutein and the C-terminal Strep tag; also called CH4-dimer
B7: hNGAL mutein S140.1-F09 (designed binder)
chain: B1 chain with D114N, C145A
notes: tagged entry not tied to the name; not shown: N-terminal T7 detection tag from vector phNGAL37; C-terminal Strep-tag II from vector phNGAL37
B8: hNGAL mutein S140.2-P24 (designed binder)
chain: B1 chain with N50D, N116S, C145A
notes: as for B7
B9: hNGAL mutein S140.3-P07 (designed binder)
chain: B1 chain with S71F, S72P, N129D, C145A
notes: as for B7
B10: hNGAL mutein S140.4-B16 (designed binder)
chain: B1 chain with S71F, S72P, G95S, N96D, C145A
notes: as for B7
B11: hNGAL mutein F92.1-J08 (designed binder)
chain: QDSTSDLIPAPPLSKVPLQQNFQDNQFHGKWYVVGLAGNRILRDDQHPMNMYATIYELKEDKSYNVTSVIFPHKKCEYTIATFVPGSQPGEFTLGNIKSYGDKTSYLVRVVSTNYNQYAVVFFKLAEDNAEFFAITIYGRTKELASELKENFIRFSKSLGLPENHIVFPVPIDQCIDGSAWSHPQF
notes: also called CTLA-4-J08
B12: hNGAL mutein S67.2-F03 (designed binder)
chain: B11 chain with Y118H, V120M, A126V
B13: hNGAL mutein S94.2-F05 (designed binder)
chain: B11 chain with V120M, I135V
B14: hNGAL mutein S106.1-N15 (designed binder)
chain: B11 chain with V34L, Y118H, V120M
B15: hNGAL mutein S106.3-K20 (designed binder)
chain: B11 chain with Y118H, K124Q, A126V, E131G
B16: hNGAL mutein S106.3-O19 (designed binder)
chain: B11 chain with Y78H, N114D, Y118H, V120M, K124E, A126V, E131G
B17: hNGAL mutein S107.4-C16 (designed binder)
chain: B11 chain with Y118H, V120M, K124E, A126V, E131G
B18: hNGAL mutein S109.5-L04 (designed binder)
chain: B11 chain with Q46R, Y118H, V120T
B19: hNGAL mutein S109.5-L23 (designed binder)
chain: B11 chain with N65D, I80T, D102G, Y118H, V120T, E127G
B20: hNGAL mutein S109.6-J11 (designed binder)
chain: B11 chain with I80F, Y118H, V120T, I135V
B21: hNGAL mutein S67.3-C21 (designed binder)
chain: QDSTSDLIPAPPLSKVPLQQNFQDNQFHGKWYVVGLAGNYIWRNDRYPMQMYATIYELKEDKSYNVTSVIFDTKKCEYPIATFVPGSQPGEFTLGNIKSYRMDTSYLVRVVSTNYNQHAMVFFKQVNHNTEHFAITIYGRTKELASELKENFIRFSKSLGLPENHIVFPVPIDQCIDGSAWSHPQF
B22: hNGAL mutein S109.4-A15 (designed binder)
chain: B11 chain with N50D, Y118H, V120T
B23: S140.4-O10_A145C (designed binder)
chain: B1 chain
notes: Produced from phNGAL15 without the T7 tag
B24: S140.4-O10_E60C (designed binder)
chain: B1 chain with E60C, C145A
notes: as for B23
B25: S140.4-O10_E143C (designed binder)
chain: B1 chain with E143C, C145A
notes: as for B23
B26: S140.4-O10_N21C (designed binder)
chain: B1 chain with N21C, C145A
notes: as for B23
B27: S140.4-O10_N116 (designed binder)
chain: B1 chain with N116C, C145A
notes: Produced from phNGAL15 without the T7 tag; also called O10_N116C
B28: S140.4-O10_Q88C (designed binder)
chain: B1 chain with Q88C, C145A
notes: as for B23
B29: S140.4-O10_S14C (designed binder)
chain: B1 chain with S14C, C145A
notes: as for B23
B30: S140.4-O10_S146C (designed binder)
chain: B1 chain with C145A, S146C
notes: as for B23
B31: S140.4-O10_S158C (designed binder)
chain: B1 chain with C145A, S158C
notes: as for B23
B32: S140.4-O10_T141C (designed binder)
chain: B1 chain with T141C, C145A
notes: as for B23
B33: S140.4-O10_V84C (designed binder)
chain: B1 chain with V84C, C145A
notes: as for B23
B34: S140.4-O10 with a free cystein residue at position 87 (designed binder)
chain: QDSTSDLIPAPPLSKVPLQQNFQDNQFHGKWYVVGLAGNRILRDDQHPMNMYATIYELKEDKSYNVTSVISSHKKCEYTIATFVPGCQPGEFTLGNIKSYGDKTSYLVRVVSTDYNQYAVVFFKLAEDNAEFFAITIYGRTKELASELKENFIRFSKSLGLPENHIVFPVPIDQCIDGSAWSHPQFEK
notes: Not PEGylated; also called O10_S87C; S87C variant

Each binder was assayed against T1, human CTLA-4-Fc (Chimerigen) (human, UniProt P16410 36-161; P01857 99-330 = IgG part, limits assumed) (assay: Affinity-ELISA of the PEGylated monomer towards hCTLA-4-Fc).
T1 construct: extracellular domain;domain: Fc portion; Bought protein; also called hCTLA-4-Fc; huCTLA-4-Ig
T1 sequence (P16410 other isoform, or with tags, fused parts or gaps mutant limits assumed): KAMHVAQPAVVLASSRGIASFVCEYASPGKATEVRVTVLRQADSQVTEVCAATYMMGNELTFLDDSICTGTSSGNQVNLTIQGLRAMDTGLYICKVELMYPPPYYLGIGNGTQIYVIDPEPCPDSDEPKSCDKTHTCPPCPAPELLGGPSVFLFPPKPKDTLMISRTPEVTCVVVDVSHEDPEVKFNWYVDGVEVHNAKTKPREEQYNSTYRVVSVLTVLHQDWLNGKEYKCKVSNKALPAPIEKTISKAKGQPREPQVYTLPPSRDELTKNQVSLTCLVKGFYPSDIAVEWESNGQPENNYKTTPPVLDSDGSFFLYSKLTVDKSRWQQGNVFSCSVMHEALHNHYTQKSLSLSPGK

B1 and B2 are within 1.5-fold of each other in “ELISA-Affinity PEGylated Monomer” value: 74 nM for the first, 103 nM for the second.

B3 and B4 are within 1.5-fold of each other in “ELISA-Affinity PEGylated Monomer” value: 100 nM for the first, 82 nM for the second.

For B5, the “ELISA-Affinity PEGylated Monomer” value was 100 nM.

These binders were tested against T1, human CTLA-4-Fc (Chimerigen) (assay: SPR-Affinity of the PEGylated monomer towards hCTLA-4-Fc).

First: B1
Second: B2
The Kd of the first is 1.7-fold lower: 50 nM for the first, 85 nM for the second.

B3 and B4 are within 1.5-fold of each other in Kd: 50 nM for the first, 69 nM for the second.

Work on B5 yielded a Kd of 97 nM.

The binders below were run against T1, human CTLA-4-Fc (Chimerigen) (assay: SPR-Affinity towards hCTLA-4-Fc).

With B6 the Kd was 0.8 nM.

The binders below were run against T2, mCTLA-4-Fc (R&D Systems) (mouse, UniProt P09793 36-162) (assay: SPR as in Example 9).
T2 sequence (P09793 whole entry): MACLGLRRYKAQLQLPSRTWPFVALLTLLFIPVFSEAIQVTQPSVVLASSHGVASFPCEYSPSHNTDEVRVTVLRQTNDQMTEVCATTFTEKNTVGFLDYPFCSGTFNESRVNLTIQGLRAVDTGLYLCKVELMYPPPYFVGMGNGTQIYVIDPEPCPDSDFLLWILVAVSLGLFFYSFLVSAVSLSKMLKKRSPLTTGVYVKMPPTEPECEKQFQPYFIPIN

Compared with B7, B8 is 1.7-fold higher in Kd: 27.9 nM for the first, 47 nM for the second.

B9 and B10 are within 1.5-fold of each other in Kd: 98 nM for the first, 112 nM for the second.

First: B7
Second: B8
The koff of the first is 1.9-fold lower: 0.000379 s⁻¹ for the first, 0.000705 s⁻¹ for the second.

B9 and B10 are within 1.5-fold of each other in koff: 0.000666 s⁻¹ for the first, 0.00056 s⁻¹ for the second.

B7 and B8 are within 1.5-fold of each other in kon: 14000 M⁻¹ s⁻¹ for the first, 15000 M⁻¹ s⁻¹ for the second.

B9 and B10 are within 1.5-fold of each other in kon: 6800 M⁻¹ s⁻¹ for the first, 5000 M⁻¹ s⁻¹ for the second.

What follows are binders tested against T1, human CTLA-4-Fc (Chimerigen) (assay: SPR as in Example 9).

Going from B7 to B8, the Kd rises from 7.8 nM to 20 nM (2.6-fold).

Going from B9 to B10, the Kd rises from 29 nM to 68 nM (2.3-fold). The first binds more tightly here.

Work on B11 yielded a Kd of 12.8 nM.

Compared with B7, B8 is 3-fold higher in koff: ~9.2e-05 s⁻¹ for the first, 0.00028 s⁻¹ for the second.

B9 and B10 are within 1.5-fold of each other in koff: 0.000319 s⁻¹ for the first, 0.000418 s⁻¹ for the second.

B11 showed a koff of 0.000116 s⁻¹.

B7 and B8 are within 1.5-fold of each other in kon: 11800 M⁻¹ s⁻¹ for the first, 14000 M⁻¹ s⁻¹ for the second.

Compared with B9, B10 is 1.8-fold lower in kon: 11000 M⁻¹ s⁻¹ for the first, 6160 M⁻¹ s⁻¹ for the second.

Work on B11 yielded a kon of 9240 M⁻¹ s⁻¹.

Each binder was assayed against T2, mCTLA-4-Fc (R&D Systems) (assay: SPR; KD listed beside Tm).

Compared with B7, B8 is 1.7-fold higher in Kd: 27.9 nM for the first, 47 nM for the second.

B9 and B10 are within 1.5-fold of each other in Kd: 98 nM for the first, 112 nM for the second.

These binders were tested against T1, human CTLA-4-Fc (Chimerigen) (assay: SPR; KD listed beside Tm).

First: B7
Second: B8
The Kd of the first is 2.6-fold lower: 7.8 nM for the first, 20 nM for the second. The first binds more tightly here.

Compared with B9, B10 is 2.3-fold higher in Kd: 29 nM for the first, 68 nM for the second. The first binds more tightly here.

With B11 the Kd was 12.8 nM.

What follows are binders tested against T2, mCTLA-4-Fc (R&D Systems) (assay: SPR, Fc fusion captured via anti-human IgG Fc).

First: B12
Second: B13
The Kd of the first is 3-fold higher: 198 nM for the first, 65 nM for the second. The second binds more tightly here.

Going from B14 to B15, the Kd rises from 110 nM to 300 nM (2.7-fold). The first binds more tightly here.

First: B16
Second: B17
The Kd of the first is 2-fold lower: 135 nM for the first, 275 nM for the second. The first binds more tightly here.

Going from B18 to B19, the Kd falls from 42 nM to 19 nM (2.2-fold). The second binds more tightly here.

Going from B20 to B21, the Kd rises from 47 nM to 6800 nM (140-fold). The first binds more tightly here.

Compared with B12, B21 is 110-fold higher in koff: 0.00089 s⁻¹ for the first, 0.098 s⁻¹ for the second.

First: B12
Second: B21
The kon of the first is 3.2-fold lower: 4500 M⁻¹ s⁻¹ for the first, 14500 M⁻¹ s⁻¹ for the second.

Each binder was assayed against T1, human CTLA-4-Fc (Chimerigen) (assay: SPR, Fc fusion captured via anti-human IgG Fc).

First: B11
Second: B12
The Kd of the first is 3.7-fold lower: 12.8 nM for the first, 47.1 nM for the second.

First: B13
Second: B14
The Kd of the first is 2.4-fold lower: 18 nM for the first, 43 nM for the second. The first binds more tightly here.

B15 and B16 are within 1.5-fold of each other in Kd: 29 nM for the first, 22 nM for the second.

B17 and B22 are within 1.5-fold of each other in Kd: 28 nM for the first, 26 nM for the second.

B18 and B20 are within 1.5-fold of each other in Kd: 29 nM for the first, 20 nM for the second.

In the case of B21, the Kd is reported as 20 nM.

Compared with B11, B12 is 2.8-fold higher in koff: 0.000116 s⁻¹ for the first, 0.00033 s⁻¹ for the second.

B21 was tested, and the koff was 0.00033 s⁻¹.

B11 and B12 are within 1.5-fold of each other in kon: 9240 M⁻¹ s⁻¹ for the first, 7030 M⁻¹ s⁻¹ for the second.

Work on B21 yielded a kon of 16000 M⁻¹ s⁻¹.

Each binder was assayed against T1, human CTLA-4-Fc (Chimerigen) (assay: SPR-Affinity of the monomer towards hCTLA-4-Fc).

Going from B23 to B24, the Kd rises from 6 nM to 24 nM (4-fold).

First: B25
Second: B26
The Kd of the first is 2.1-fold lower: 15 nM for the first, 32 nM for the second. The first binds more tightly here.

First: B27
Second: B28
The Kd of the first is 1.5-fold lower: 10 nM for the first, 15 nM for the second.

B29 and B30 are within 1.5-fold of each other in Kd: 13 nM for the first, 9 nM for the second.

Going from B31 to B32, the Kd falls from 13 nM to 4 nM (3.2-fold).

Compared with B33, B34 is 2.5-fold lower in Kd: 15 nM for the first, 6 nM for the second. The second binds more tightly here.
